Assay results taken from patent US20170253670A1 (Hoffmann-La Roche, published 2017).

T1: MUC1 SEA-avi-His, biotinylated (human, biotin on avi tag)
T1 construct: E. coli derived; also called MUC1 antigen; SEA domain of human MUC1
T1 chain: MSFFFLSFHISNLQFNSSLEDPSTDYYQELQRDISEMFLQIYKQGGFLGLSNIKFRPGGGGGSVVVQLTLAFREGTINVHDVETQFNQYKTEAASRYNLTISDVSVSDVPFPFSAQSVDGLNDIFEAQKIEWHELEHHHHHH

B1: 58D6 MUC1-specific CLC TCB (bispecific antibody)
heavy 1: not shown
heavy 2: not shown
light: QAVVTQEPSLTVSPGGTVTLTCGSSTGAVTTSNYANWVQEKPGQAFRGLIGGTNKRAPGTPARFSGSLLGGKAALTLSGAQPEDEAEYYCALWYSNLWVFGGGTKLTVLRTQPKAAPSVTLFPPSSEELQANKATLVCLISDFYPGAVTVAWKADSSPVKAGVETTTPSKQSNNKYAASSYLSLTPEQWKSHRSYSCQVTHEGSTVEKTVAPTECS
notes: also called 58D6 TCB
B2: 110A5 MUC1-specific CLC TCB (bispecific antibody)
heavy 1: not shown
heavy 2: not shown
light: B1 light
notes: also called 110A5 TCB
B3: 21A5 IgG (antibody, V domains shown)
VH: not shown
VL: QAVVTQEPSLTVSPGGTVTLTCGSSTGAVTTSNYANWVQEKPGQAFRGLIGGTNKRAPGTPARFSGSLLGGKAALTLSGAQPEDEAEYYCALWYSNLWVFGGGTKLTVL
notes: human IgG1
B4: 16D5 IgG (antibody, V domains shown)
VH: not shown
VL: B3 VL
notes: human IgG1
B5: Mov19 FolR1 TCB 2+1 inverted (bispecific antibody)
chain 1: not shown
chain 2: QVQLQQSGAELVKPGASVKISCKASGYSFTGYFMNWVKQSHGKSLEWIGRIHPYDGDTFYNQNFKDKATLTVDKSSNTAHMELLSLTSEDFAVYYCTRYDGSRAMDYWGQGTTVTVSSASTKGPSVFPLAPSSKSTSGGTAALGCLVKDYFPEPVTVSWNSGALTSGVHTFPAVLQSSGLYSLSSVVTVPSSSLGTQTYICNVNHKPSNTKVDKKVEPKSCDKTHTCPPCPAPEAAGGPSVFLFPPKPKDTLMISRTPEVTCVVVDVSHEDPEVKFNWYVDGVEVHNAKTKPREEQYNSTYRVVSVLTVLHQDWLNGKEYKCKVSNKALGAPIEKTISKAKGQPREPQVCTLPPSRDELTKNQVSLSCAVKGFYPSDIAVEWESNGQPENNYKTTPPVLDSDGSFFLVSKLTVDKSRWQQGNVFSCSVMHEALHNHYTQKSLSLSPGK
chain 3: DIELTQSPASLAVSLGQRAIISCKASQSVSFAGTSLMHWYHQKPGQQPKLLIYRASNLEAGVPTRFSGSGSKTDFTLNIHPVEEEDAATYYCQQSREYPYTFGGGTKLEIKRTVAAPSVFIFPPSDEQLKSGTASVVCLLNNFYPREAKVQWKVDNALQSGNSQESVTEQDSKDSTYSLSSTLTLSKADYEKHKVYACEVTHQGLSSPVTKSFNRGEC

How the values were obtained:
[1] = target: T1, MUC1 SEA-avi-His, biotinylated; assay: SPR (ProteOn XPR36), biotinylated MUC1 on NLC chip, TCB as analyte
Method: Binding of the produced MUC1-specific TCBs was measured by surface plasmon resonance using a ProteOn XPR36 instrument (Biorad) at 25° C. Biotinylated MUC1 antigen and an unrelated biotinylated antigen were immobilized on NLC chips by neutravidin capture. Immobilization of the antigens was performed as described before. […] Buffer (PBST) was injected along the sixth channel to provide an “in-line” blank for referencing.
Regeneration was performed in horizontal orientation using 10 mM Glycine, pH 1.5 at a flow rate of 100 ul/min for a contact time of 30 s.

[2] = target: T2, cyno FolR1 on transiently transfected HEK cells (cynomolgus); assay: flow cytometry on HEK cells transiently transfected with cyno FolR1, fluorescently labeled anti-human secondary antibody
T2 construct: whole, on cells; also called cyFolR1
Method: Cross-reactivity of the FolR1 antibodies to cyno FolR1 was addressed on HEK cells transiently transfected with cyFolR1 by flow cytometry. The antibodies were detected with a fluorescently labeled anti-human secondary antibody.
Target cells as indicated were harvested with Cell Dissociation Buffer, washed with PBS and resuspended in FACS buffer. The antibody staining was performed in a 96well round bottom plate. Therefore 200′000 cells were seeded per well. The plate was centrifuged for 4 min at 400 g and the supernatant was removed. The test antibodies were diluted in FACS buffer and 20 μl of the antibody solution were added to the cells for 30 min at 4° C.

[3] = target: human FolR1 on cells (HeLa, SKOV3, HT-29, transfected HEK) (human, UniProt P15328 25-234); assay: cell-based or functional assay
Chain of human FolR1 on cells (HeLa, SKOV3, HT-29, transfected HEK) (P15328 25-234): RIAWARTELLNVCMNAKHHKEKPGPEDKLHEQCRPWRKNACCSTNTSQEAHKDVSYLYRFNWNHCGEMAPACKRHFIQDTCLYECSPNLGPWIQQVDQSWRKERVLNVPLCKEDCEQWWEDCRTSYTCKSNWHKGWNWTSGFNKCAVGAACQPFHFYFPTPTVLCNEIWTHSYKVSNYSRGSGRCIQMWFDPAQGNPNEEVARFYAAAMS

| Binder | binding result [1] | EC50 (read off the curve) [2] | further results |
| --- | --- | --- | --- |
| B1 | binds | – | – |
| B2 | binds | – | – |
| B3 | – | ~6 µg/mL | – |
| B4 | – | ~7 µg/mL | – |
| B5 | – | – | EC50 killing 24 h, SKov-3 [3]: 0.75 pM; EC50 killing 48 h, SKov-3 [3]: 0.05 pM |
